{
  "source": "patent US11499162B2",
  "about": "“Plants having increased tolerance to herbicides” (BASF SE, priority 2016, dated 2022)",
  "molecules": {"B1": {"name": "E246S: mutated TriA variant of SEQ ID NO: 2 (protein)", "chain": "MQTLSIQHGTLVTMDQYRRVLGDSWVHVQDGRIVALGVHAESVPPPADRVIDARGKVVLPGFINAHTHVNQILLRGGPSHGRQLYDWLFNVLYPGQKAMRPEDVAVAVRLYCAEAVRSGITTINDNADSAIYPGNIEAAMAVYGEVGVRVVYARMFFDRMDGRIQGYVDALKARSPQVELCSIMEETAVAKDRITALSDQYHGTAGGRISVWPAPAITPAVTVEGMRWAQAFARDRAVMWTLHMASSDHDERLHWMSPAEYMECYGLLDERLQVAHCVYFDRKDVRLLHRHNVKVASQVVSNAYLGSGVAPVPEMVERGMAVGIGTDDGNCNDSVNMIGDMKFMAHIHRAVHRDADVLTPEKILEMATIDGARSLGMDHEIGSIETGKRADLILLDLRHPQTTPHHHLAATIVFQAYGNEVDTVLIDGNVVMENRRLSFLPPERELAFLEEAQSRATAILQRANMVANPAWRSL", "modifications": "Pseudomonas"}, "B2": {"name": "D248G: mutated TriA variant of SEQ ID NO: 2 (protein)", "chain": "B1 chain with S246E, D248G", "modifications": "Pseudomonas"}, "B3": {"name": "S247V: mutated TriA variant of SEQ ID NO: 2 (protein)", "chain": "B1 chain with S246E, S247V", "modifications": "Pseudomonas"}, "B4": {"name": "E246T: mutated TriA variant of SEQ ID NO: 2 (protein)", "chain": "B1 chain with S246T", "modifications": "Pseudomonas"}, "B5": {"name": "E246Q: mutated TriA variant of SEQ ID NO: 2 (protein)", "chain": "B1 chain with S246Q", "modifications": "Pseudomonas"}, "B6": {"name": "H249N: mutated TriA variant of SEQ ID NO: 2 (protein)", "chain": "B1 chain with S246E, H249N", "modifications": "Pseudomonas"}, "B7": {"name": "D250E: mutated TriA variant of SEQ ID NO: 2 (protein)", "chain": "B1 chain with S246E, D250E", "modifications": "Pseudomonas"}, "B8": {"name": "S247A: mutated TriA variant of SEQ ID NO: 2 (protein)", "chain": "B1 chain with S246E, S247A", "modifications": "Pseudomonas"}, "B9": {"name": "H249I: mutated TriA variant of SEQ ID NO: 2 (protein)", "chain": "B1 chain with S246E, H249I", "modifications": "Pseudomonas"}, "B10": {"name": "S247N: mutated TriA variant of SEQ ID NO: 2 (protein)", "chain": "B1 chain with S246E, S247N", "modifications": "Pseudomonas"}, "B11": {"name": "S247G: mutated TriA variant of SEQ ID NO: 2 (protein)", "chain": "B1 chain with S246E, S247G", "modifications": "Pseudomonas"}, "B12": {"name": "H249V: mutated TriA variant of SEQ ID NO: 2 (protein)", "chain": "B1 chain with S246E, H249V", "modifications": "Pseudomonas"}, "B13": {"name": "E246D: mutated TriA variant of SEQ ID NO: 2 (protein)", "chain": "B1 chain with S246D", "modifications": "Pseudomonas"}, "B14": {"name": "S247P: mutated TriA variant of SEQ ID NO: 2 (protein)", "chain": "B1 chain with S246E, S247P", "modifications": "Pseudomonas"}, "B15": {"name": "D248S: mutated TriA variant of SEQ ID NO: 2 (protein)", "chain": "B1 chain with S246E, D248S", "modifications": "Pseudomonas"}, "B16": {"name": "N70G: mutated TriA variant of SEQ ID NO: 2 (protein)", "chain": "B1 chain with N70G, S246E", "modifications": "Pseudomonas"}, "B17": {"name": "D250N: mutated TriA variant of SEQ ID NO: 2 (protein)", "chain": "B1 chain with S246E, D250N", "modifications": "Pseudomonas"}, "B18": {"name": "D248N: mutated TriA variant of SEQ ID NO: 2 (protein)", "chain": "B1 chain with S246E, D248N", "modifications": "Pseudomonas"}, "B19": {"name": "E251D: mutated TriA variant of SEQ ID NO: 2 (protein)", "chain": "B1 chain with S246E, E251D", "modifications": "Pseudomonas"}, "B20": {"name": "N70V: mutated TriA variant of SEQ ID NO: 2 (protein)", "chain": "B1 chain with N70V, S246E", "modifications": "Pseudomonas"}},
  "assay_type": "biochemical",
  "conditions": "pH 7.2",
  "how_it_was_run": "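Expression: BL21(DE3) Gold, pET24d N-His, pGro7, 0.1 mM IPTG, 25° C, 20 h. Reaction: 25 mM Na phosphate pH 7.2, substrate 1 nM to 10 nM, 30° C. Analysis: UPLC-HR-MS; % degradation vs empty vector.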",
  "note": "Positions count from the first letter of the chain named. In names and notes the source's numbering stands.",
  "data": [
    {"molecule": "B1", "values": [
      {"measurement": "Degradation in % of 6-cyclopentyl-N4-(2,3,4,5,6-pentafluorophenyl)-1,3,5-triazine-2,4-diamine", "value": 1, "unit": "%"},
      {"measurement": "Degradation in % of Melamine", "value": 0, "unit": "%"}
    ]},
    {"molecule": "B2", "values": [
      {"measurement": "Degradation in % of 6-cyclopentyl-N4-(2,3,4,5,6-pentafluorophenyl)-1,3,5-triazine-2,4-diamine", "value": 0, "unit": "%"},
      {"measurement": "Degradation in % of Melamine", "value": 7, "unit": "%"}
    ]},
    {"molecule": "B3", "values": [
      {"measurement": "Degradation in % of 6-cyclopentyl-N4-(2,3,4,5,6-pentafluorophenyl)-1,3,5-triazine-2,4-diamine", "value": 2, "unit": "%"},
      {"measurement": "Degradation in % of Melamine", "value": 3, "unit": "%"}
    ]},
    {"molecule": "B4", "values": [
      {"measurement": "Degradation in % of 6-cyclopentyl-N4-(2,3,4,5,6-pentafluorophenyl)-1,3,5-triazine-2,4-diamine", "value": 3, "unit": "%"},
      {"measurement": "Degradation in % of Melamine", "value": 0, "unit": "%"}
    ]},
    {"molecule": "B5", "values": [
      {"measurement": "Degradation in % of 6-cyclopentyl-N4-(2,3,4,5,6-pentafluorophenyl)-1,3,5-triazine-2,4-diamine", "value": 0, "unit": "%"},
      {"measurement": "Degradation in % of Melamine", "value": 4, "unit": "%"}
    ]},
    {"molecule": "B6", "values": [
      {"measurement": "Degradation in % of 6-cyclopentyl-N4-(2,3,4,5,6-pentafluorophenyl)-1,3,5-triazine-2,4-diamine", "value": 0, "unit": "%"},
      {"measurement": "Degradation in % of Melamine", "value": 1, "unit": "%"}
    ]},
    {"molecule": "B7", "values": [
      {"measurement": "Degradation in % of 6-cyclopentyl-N4-(2,3,4,5,6-pentafluorophenyl)-1,3,5-triazine-2,4-diamine", "value": 2, "unit": "%"},
      {"measurement": "Degradation in % of Melamine", "value": 3, "unit": "%"}
    ]},
    {"molecule": "B8", "values": [
      {"measurement": "Degradation in % of 6-cyclopentyl-N4-(2,3,4,5,6-pentafluorophenyl)-1,3,5-triazine-2,4-diamine", "value": 0, "unit": "%"},
      {"measurement": "Degradation in % of Melamine", "value": 1, "unit": "%"}
    ]},
    {"molecule": "B9", "values": [
      {"measurement": "Degradation in % of 6-cyclopentyl-N4-(2,3,4,5,6-pentafluorophenyl)-1,3,5-triazine-2,4-diamine", "value": 1, "unit": "%"},
      {"measurement": "Degradation in % of Melamine", "value": 100, "unit": "%"}
    ]},
    {"molecule": "B10", "values": [
      {"measurement": "Degradation in % of 6-cyclopentyl-N4-(2,3,4,5,6-pentafluorophenyl)-1,3,5-triazine-2,4-diamine", "value": 2, "unit": "%"},
      {"measurement": "Degradation in % of Melamine", "value": 0, "unit": "%"}
    ]},
    {"molecule": "B11", "values": [
      {"measurement": "Degradation in % of 6-cyclopentyl-N4-(2,3,4,5,6-pentafluorophenyl)-1,3,5-triazine-2,4-diamine", "value": 2, "unit": "%"},
      {"measurement": "Degradation in % of Melamine", "value": 2, "unit": "%"}
    ]},
    {"molecule": "B12", "values": [
      {"measurement": "Degradation in % of 6-cyclopentyl-N4-(2,3,4,5,6-pentafluorophenyl)-1,3,5-triazine-2,4-diamine", "value": 0, "unit": "%"},
      {"measurement": "Degradation in % of Melamine", "value": 100, "unit": "%"}
    ]},
    {"molecule": "B13", "values": [
      {"measurement": "Degradation in % of 6-cyclopentyl-N4-(2,3,4,5,6-pentafluorophenyl)-1,3,5-triazine-2,4-diamine", "value": 5, "unit": "%"},
      {"measurement": "Degradation in % of Melamine", "value": 0, "unit": "%"}
    ]},
    {"molecule": "B14", "values": [
      {"measurement": "Degradation in % of 6-cyclopentyl-N4-(2,3,4,5,6-pentafluorophenyl)-1,3,5-triazine-2,4-diamine", "value": 0, "unit": "%"},
      {"measurement": "Degradation in % of Melamine", "value": 3, "unit": "%"}
    ]},
    {"molecule": "B15", "values": [
      {"measurement": "Degradation in % of 6-cyclopentyl-N4-(2,3,4,5,6-pentafluorophenyl)-1,3,5-triazine-2,4-diamine", "value": 3, "unit": "%"},
      {"measurement": "Degradation in % of Melamine", "value": 20, "unit": "%"}
    ]},
    {"molecule": "B16", "values": [
      {"measurement": "Degradation in % of 6-cyclopentyl-N4-(2,3,4,5,6-pentafluorophenyl)-1,3,5-triazine-2,4-diamine", "value": 0, "unit": "%"},
      {"measurement": "Degradation in % of Melamine", "value": 0, "unit": "%"}
    ]},
    {"molecule": "B17", "values": [
      {"measurement": "Degradation in % of 6-cyclopentyl-N4-(2,3,4,5,6-pentafluorophenyl)-1,3,5-triazine-2,4-diamine", "value": 1, "unit": "%"},
      {"measurement": "Degradation in % of Melamine", "value": 3, "unit": "%"}
    ]},
    {"molecule": "B18", "values": [
      {"measurement": "Degradation in % of 6-cyclopentyl-N4-(2,3,4,5,6-pentafluorophenyl)-1,3,5-triazine-2,4-diamine", "value": 4, "unit": "%"},
      {"measurement": "Degradation in % of Melamine", "value": 11, "unit": "%"}
    ]},
    {"molecule": "B19", "values": [
      {"measurement": "Degradation in % of 6-cyclopentyl-N4-(2,3,4,5,6-pentafluorophenyl)-1,3,5-triazine-2,4-diamine", "value": 35, "unit": "%"},
      {"measurement": "Degradation in % of Melamine", "value": 100, "unit": "%"}
    ]},
    {"molecule": "B20", "values": [
      {"measurement": "Degradation in % of 6-cyclopentyl-N4-(2,3,4,5,6-pentafluorophenyl)-1,3,5-triazine-2,4-diamine", "value": 4, "unit": "%"},
      {"measurement": "Degradation in % of Melamine", "value": 0, "unit": "%"}
    ]}
  ]
}
